This experiment addresses SARS-CoV-2 spike trimer (1–1208 aa) (SARS-CoV-2) (UniProt P0DTC2). The experiment can be described thus: SPR.

In turn, “Toll-like receptor 4 (TLR4) (from UniProt O00206 24-839)” showed a Kd of 300 nM.

The term Kd denotes the equilibrium constant for the complex coming apart.

(Values after paper PMC7975240.)
